# In patent US10058586B2, “Use of human small leucine zipper protein in adipocyte differentiation procedure” (Korea University Research and Business Foundation, priority 2013, dated 2018):
# B1: sLZIP: human small leucine-zipper protein, isoform of LZIP, 354 amino acids, no transmembrane domain; GenBank FJ263669, SEQ ID NO: 1 (protein, listed as Homo sapiens)
# chain: MELELDAGDQDLLAFLLEESGDLGTAPDEAVRAPLDWALPLSEVPSDWEVDDLLCSLLSPPASLNILSSSNPCLVHHDHTYSLPRETVSMDLESESCRKEGTQMTPQHMEELAEQEIARLVLTDEEKSLLEKEGLILPETLPLTKTEEQILKRVRRKIRNKRSAQESRRKKKVYVGGLESRVLKYTAQNMELQNKVQLLEEQNLSLLDQLRKLQAMVIEISNKTSSSSMYSSDTRGSLPAEHGVLSRQLRALPSEDPYQLELPALQSEVPKDSTHQWLDGSDCVLQAPGNTSCLLHYMPQAPSAEPPLEWPFPDLFSEPLCRGPILPLQANLTRKGGWLPTGSPSVILQDRYSG
# Tests used:
# [1] = test system: CREB element in the FABP4 enhancer region; experiment: Electrophoretic mobility shift assay (EMSA) of His-sLZIP with FABP4 enhancer probes; format: binding
# Description: T4 polynucleotide kinase (Promega, Madison, Wis.) was used to label 5′-terminal of oligonucleotides with [γ-^32P]ATP (Perkin Elmer, Waltham, Mass.). According to instructions of the manufacturer, unbound nucleotides were removed through tubes in a Bio-Gel P-6 spin column (Bio-Rad, Inc., Hercules, Calif.). His-sLZIP proteins were pre-incubated for 20 minutes at room temperature in a 5× binding buffer [10×GRAB, 20 mM of DTT, poly(deoxyinosinic-deoxycytidylic), Sigma, St. Louis] and radiolabeled probes. Reaction mixtures were loaded in wells of 4% nondenaturing polyacrylamide gels, and subjected to electrophoresis for 45 minutes at 180 V in a 0.5×TBE buffer. For competition experiments, a binding reaction was incubated for 30 minutes with 100-fold molar excess of unlabeled CREB binding oligonucleotides before radiolabeled oligonucleotides were added. For supershift analysis, anti-His antibodies were added to a reaction mixture on ice for additional 30 minutes.
# A DNA binding ability of sLZIP with various elements in the FABP4 enhancer region was examined. For this purpose, recombinant His-sLZIP fusion proteins (3 μg) were incubated with γ-^32P-labeled oligonucleotide probes containing expected CREB binding elements (FIG. 7B). The γ-^32P-labeled oligonucleotide probes were incubated while an amount of purified His-sLZIPs was increased. For competition analysis, unlabeled CREB oligonucleotide probes of 100-fold excess were used and His antibodies were added to a reaction mixture on ice for additional […] (FIG. 7C). His-sLZIP proteins were subjected to EMSA using wild type and CREB mutant (TGATGTCA→TGGGGTCA) probes (FIG. 7D). 293T cells were temporarily transfected with PPARγ2 (0.5 μg), β-galactosidase (0.1 μg), FABP4 enhancer-luciferase reporter genes (0.2 μg) and sLZIP mutants at different contents (0.1 to 0.5 μg). After the transfection, the cells were stimulated with 10 nM of RZD (FIG. 7F). A luciferase activity was normalized to a β-galactosidase activity and represented as a relative activity (fold change). All experiments were repeated three times, and bars in the graph represent mean±standard deviation. ChIP analysis was performed using HA-sLZIP-specific antibodies and then PCR was performed. Input chromatins or immunoprecipitated chromatins were subjected to PCR and used as a control group for variables.
# [2] = test system: HDAC3; experiment: HDAC3 ubiquitination (Ha-UB, GST pull-down) in 293T cells; format: cell-based; details: ligand treated (10 nM RZD, 24 hours)
# Description: Therefore, in order to understand a regulation mechanism of sLZIP in the PPARγ2 transcriptional activity by binding to the FABP4 promoter region, an effect of sLZIP on the interaction between PPARγ2 and HDAC3 was examined. For this purpose, 293T cells were transfected with GST-HDAC3, Myc-PPARγ2 and Flag-sLZIP, and were treated or not treated with 10 nM of RZD for 24 hours. Cell lysates were subjected to GST pull-down analysis using a glutathione 4B bead, and a protein complex was analyzed in SDS-PAGE, and then immunoblotted with anti-GST, anti-Myc and anti-Flag antibodies (FIG. 6A). GST-HDAC3, GST-PPARγ2, Myc-PPARγ2, Flag-sLZIP and Ha-UB were expressed in the 293T cells, and the cells were treated with 10 nM of RZD for 24 hours. Cell lysates were subjected to GST pull-down analysis (FIG. 6B). GST-PPARγ2 and Flag-sLZIP were expressed in the 293T cells and treated with 10 nM of RZD for 24 hours. Cell lysates were subjected to GST pull-down analysis, and a protein complex was analyzed in SDS-PAGE, and then immunoblotted with anti-PGC1α, anti-GST and anti-Flag antibodies (FIG. 6C).
# [3] = test system: NCoR1; experiment: Immunoprecipitation with anti-NCoR1 antibodies in 293T cells expressing Flag-sLZIP; format: binding; details: 10 nM RZD for 24 hours
# Description: 293T cells were obtained and washed with cold PBS. The cells were re-suspended in an IP lysis buffer [25 mM of Tris-HCl (pH 7.4), 150 mM of NaCl, 1 mM of EDTA, 1% NP-40 and 5% glycerol, and a protease inhibitor]. A suspension was centrifuged at 16,000×g for 20 minutes at 4° C. Supernatants were collected and incubated with 0.5 μg of appropriate antibodies and 25 μl of protein A/G-agarose or a GST Sepharose 4B bead for 24 hours at 4° C. A protein complex was centrifuged at 1,000×g with a cold IP lysis buffer for 1 minute and washed five times. The final pellet was re-suspended in 50 μl of an SDS-sample buffer containing 5% β-mercaptoethanol and heated for 10 minutes at 100° C. A protein sample was isolated in SDS-PAGE (8 to 10%) and transferred to nitrocellulose membranes. Co-precipitated proteins were detected according to western blotting using specific antibodies.
# For this purpose, 293T cells were transfected with GST-PPARγ2 and Flag-sLZIP and were treated or not treated with 10 nM of RZD for 24 hours. […] A protein complex was analyzed in SDS-PAGE, and immunoblotted with anti-GST and anti-Flag antibodies. […] The cell lysates were GST pull-down analyzed (FIG. 5C). […] The cell lysates were GST pull-down analyzed (FIG. 5D). […] A protein complex was analyzed in SDS-PAGE, and then immunoblotted with anti-NCoR1 and anti-Flag antibodies (FIG. 5E). […]
molecule,measurement,setting,value
B1,"DNA binding to CREB element (EMSA, cold competition)",[1]; 100-fold excess unlabeled CREB probes,not bound to the CREB element when there were competitors
same,DNA binding to CREB mutant probes (EMSA),[1]; CREB mutant TGATGTCA→TGGGGTCA,not bound to CREB mutant probes
same,supershift (EMSA),[1]; His antibodies added,supershifted
same,DNA binding to elements in the FABP4 enhancer region (EMSA),"[1]; His-sLZIP 3 μg, labeled probes",directly bound to a CREB region
same,DNA binding ability with CREB element (EMSA),[1]; increasing amount of purified His-sLZIP,increased in a concentration-dependent manner
same,HDAC3 ubiquitination,[2],inhibited HDAC3 ubiquitination
same,interaction with NCoR1 (immunoprecipitation),[3],NCoR1 was slightly dissociated from sLZIP
